Source: US20070212705
Where two headings read alike, the source gives them in different places.

T1: Tetrapeptide Lys substrate L-Ala-γ-D-Glu-L-Lys-D-Ala
T1 chain: AEKA


Biological target: T1, Tetrapeptide Lys substrate …

| Protein | cleavage of tetrapeptide substrate (RFU, Amplex Red detection of D-alanine released) | cleavage of tetrapeptide substrate | cleavage of tetrapeptide substrate (RFU, Amplex Red detection of D-alanine released) (scale: fold lower specific activity compared to E. coli LDC) |
| --- | --- | --- | --- |
| E. coli LDC protein (muramoyl-tetrapeptide carboxypeptidase P76008) (protein) MSLFHLIAPSGYCIKQHAALRGIQRLTDAGHQVNNVEVIARRCERFAGTETERLEDLNSLARLTTPNTIVLAVRGGYGASRLLADIDWQALVARQQHDPLLICGHSDFTAIQCGLLAHGNVITFSGPMLVANFGADELNAFTEHHFWLALRNETFTIEWQGEGPTCRAEGTLWGGNLAMLISLIGTPWMPKIENGILVLEDINEHPFRVERMLLQLYHAGILPRQKAIILGSFSGSTPNDYDAGYNLESVYAFLRSRLSIPLITGLDFGHEQRTVTLPLGAHAILNNTREGTQLTISGHPVLKM | illustrates the cleavage of a tetrapeptide substrate (L-Ala-γ-D-Glu-L-Lys-D-Ala) by E. coli LDC (squares) | – | – |
| P. aeruginosa L-D carboxypeptidase A (PA LDC), N-terminal his-tagged, expressed from pET14b in E. coli BL21 (protein) MTSRPSSDQTWQPIDGRVALIAPASAIATDVLEATLRQLEVHGVDYHLGRHVEARYRYLAGTVEQRLEDLHNAFDMPDITAVWCLRGGYGCGQLLPGLDWGRLQAASPRPLIGFSDISVLLSAFHRHGLPAIHGPVATGLGLSPLSAPREQQERLASLASVSRLLAGIDHELPVQHLGGHKQRVEGALIGGNLTALACMAGTLGGLHAPAGSILVLEDVGEPYYRLERSLWQLLESIDARQLGAICLGSFTDCPRKEVAHSLERIFGEYAAAIEVPLYHHLPSGHGAQNRAWPYGKTAVLEGNRLRW | – | express a functional PA LDC protein that cleaved a tetrapeptide substrate in a dose dependent manner | 2 |
